Test results from article PMC9482650, “Quantitative fragmentomics allow affinity mapping of interactomes” (Nature Communications, 2022).

T1: TIAM2, Q8IVF5
T1 sequence (Q8IVF5 885-986, limits assumed, looked up): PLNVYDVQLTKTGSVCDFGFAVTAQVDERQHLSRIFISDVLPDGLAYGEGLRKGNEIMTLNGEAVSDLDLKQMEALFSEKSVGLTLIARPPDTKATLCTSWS

T2: MPDZ_10, O75970
T2 sequence (O75970 1624-1722, limits assumed, looked up): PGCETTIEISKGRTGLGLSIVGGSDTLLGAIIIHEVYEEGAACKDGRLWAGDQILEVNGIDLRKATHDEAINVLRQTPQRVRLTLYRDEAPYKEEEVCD

T3: PTPN13_1, Q12923
T3 sequence (Q12923 1088-1188, limits assumed, looked up): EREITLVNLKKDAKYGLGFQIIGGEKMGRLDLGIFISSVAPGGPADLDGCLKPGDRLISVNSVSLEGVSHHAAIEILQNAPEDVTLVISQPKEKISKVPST

T4: APBA2_2, Q99767
T4 sequence (Q99767 654-744, limits assumed, looked up): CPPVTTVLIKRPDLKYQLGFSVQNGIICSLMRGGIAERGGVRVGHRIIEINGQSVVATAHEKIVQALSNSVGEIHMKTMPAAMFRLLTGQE

T5: DFNB31_1, Q9P202
T5 sequence (Q9P202 135-233, limits assumed, looked up): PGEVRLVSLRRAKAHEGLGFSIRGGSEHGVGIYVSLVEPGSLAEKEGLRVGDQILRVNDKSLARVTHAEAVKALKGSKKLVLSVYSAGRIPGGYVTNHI

T6: PDZRN3_1, Q9UPQ7
T6 sequence (Q9UPQ7 244-349, limits assumed, looked up): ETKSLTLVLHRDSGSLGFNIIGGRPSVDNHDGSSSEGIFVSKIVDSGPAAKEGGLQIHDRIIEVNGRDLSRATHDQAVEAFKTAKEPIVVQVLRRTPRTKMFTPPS

T7: NHERF3_1, Q5T2W1
T7 sequence (Q5T2W1 4-100, limits assumed, looked up): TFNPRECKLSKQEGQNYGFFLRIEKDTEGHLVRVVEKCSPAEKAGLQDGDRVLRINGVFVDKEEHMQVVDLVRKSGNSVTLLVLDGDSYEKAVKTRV

T8: PARD3B_1, Q8TEW8
T8 sequence (Q8TEW8 196-299, limits assumed, looked up): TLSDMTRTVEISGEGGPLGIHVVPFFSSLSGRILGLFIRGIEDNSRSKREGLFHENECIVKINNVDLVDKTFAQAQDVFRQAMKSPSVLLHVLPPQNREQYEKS

T9: APBA2_1, Q99767
T9 sequence (Q99767 563-664, limits assumed, looked up): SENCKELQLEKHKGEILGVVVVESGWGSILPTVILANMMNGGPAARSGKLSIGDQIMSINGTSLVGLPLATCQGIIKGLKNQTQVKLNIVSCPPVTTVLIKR

T10: SNTG2, Q9NY99
T10 sequence (Q9NY99 68-166, limits assumed, looked up): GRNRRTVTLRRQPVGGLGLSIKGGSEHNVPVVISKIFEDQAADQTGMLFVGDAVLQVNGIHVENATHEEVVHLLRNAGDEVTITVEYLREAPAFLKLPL

T11: GRIP1_2, Q9Y3R0
T11 sequence (Q9Y3R0 145-248, limits assumed, looked up): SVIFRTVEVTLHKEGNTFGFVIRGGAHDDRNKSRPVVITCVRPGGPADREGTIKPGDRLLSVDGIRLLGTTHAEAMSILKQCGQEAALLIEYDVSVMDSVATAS


Columns and labels:
Test in all cases: holdup assay
Parameters in all cases: key: below the threshold = too weak to quantify, mostly under pKd 3.1 to 4
Settings in all cases: plain residues with an end cap or a label only (N-terminal biotin on a linker: ado-ado)
[1] = target: MAGI1_1, Q96QZ7
MAGI1_1, Q96QZ7, sequence (Q96QZ7 1-106): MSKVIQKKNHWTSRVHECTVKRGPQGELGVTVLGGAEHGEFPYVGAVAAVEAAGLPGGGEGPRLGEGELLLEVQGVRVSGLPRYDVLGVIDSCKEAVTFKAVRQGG

[2] = target: T1, TIAM2, Q8IVF5
[3] = target: DLG4_1, P78352
DLG4_1, P78352, sequence (P78352 62-152): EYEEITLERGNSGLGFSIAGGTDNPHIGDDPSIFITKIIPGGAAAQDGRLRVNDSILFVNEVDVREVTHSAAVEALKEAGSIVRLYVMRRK

[4] = target: T2, MPDZ_10, O75970
[5] = target: T3, PTPN13_1, Q12923
[6] = target: GORASP1, Q9BQQ3
GORASP1, Q9BQQ3, sequence (Q9BQQ3 1-208): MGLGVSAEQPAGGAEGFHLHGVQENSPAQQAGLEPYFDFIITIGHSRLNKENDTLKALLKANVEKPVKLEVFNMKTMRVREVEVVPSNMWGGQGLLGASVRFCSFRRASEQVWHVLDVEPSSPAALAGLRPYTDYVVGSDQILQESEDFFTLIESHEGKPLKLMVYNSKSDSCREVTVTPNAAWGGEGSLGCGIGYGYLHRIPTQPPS

[7] = target: T4, APBA2_2, Q99767
[8] = target: T5, DFNB31_1, Q9P202
[9] = target: NHERF2_2, Q15599
NHERF2_2, Q15599, sequence (Q15599 142-238): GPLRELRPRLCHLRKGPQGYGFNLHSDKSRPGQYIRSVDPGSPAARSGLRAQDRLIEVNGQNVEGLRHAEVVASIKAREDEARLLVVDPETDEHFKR

[10] = target: T6, PDZRN3_1, Q9UPQ7
[11] = target: T7, NHERF3_1, Q5T2W1
[12] = target: T8, PARD3B_1, Q8TEW8
[13] = target: T9, APBA2_1, Q99767
[14] = target: LNX1_1, Q8TBB1
LNX1_1, Q8TBB1, sequence (Q8TBB1 261-371): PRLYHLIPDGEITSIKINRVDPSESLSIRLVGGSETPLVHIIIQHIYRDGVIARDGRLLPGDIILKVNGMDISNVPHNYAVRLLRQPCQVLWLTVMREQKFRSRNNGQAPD

[15] = target: LAP2, Q96RT1
LAP2, Q96RT1, sequence (Q96RT1 other isoform, or with tags, fused parts or gaps): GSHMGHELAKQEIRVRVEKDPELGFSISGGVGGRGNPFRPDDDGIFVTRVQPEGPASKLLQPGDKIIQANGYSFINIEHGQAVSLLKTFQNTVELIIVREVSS

[16] = target: PARD3_3, Q8TEW0
PARD3_3, Q8TEW0, sequence (Q8TEW0 582-685): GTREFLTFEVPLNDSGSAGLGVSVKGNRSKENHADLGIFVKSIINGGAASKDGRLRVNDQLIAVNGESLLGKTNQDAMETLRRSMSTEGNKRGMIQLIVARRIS

[17] = target: FRMPD2_3, Q68DX3
FRMPD2_3, Q68DX3, sequence (Q68DX3 1073-1166): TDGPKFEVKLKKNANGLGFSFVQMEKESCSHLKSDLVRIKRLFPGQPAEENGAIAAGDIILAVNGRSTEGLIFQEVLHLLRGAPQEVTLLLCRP

[18] = target: T10, SNTG2, Q9NY99
[19] = target: GRIP2_3, Q9C0E4
GRIP2_3, Q9C0E4, sequence (Q9C0E4 238-339): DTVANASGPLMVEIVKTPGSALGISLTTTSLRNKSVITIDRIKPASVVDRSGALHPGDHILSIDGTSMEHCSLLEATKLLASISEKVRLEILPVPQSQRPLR

[20] = target: Inadl_2, Q8NI35
Inadl_2, Q8NI35, sequence (Q8NI35 238-335): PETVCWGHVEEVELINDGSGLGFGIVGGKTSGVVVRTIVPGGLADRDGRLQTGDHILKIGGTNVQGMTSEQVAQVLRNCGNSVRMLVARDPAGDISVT

[21] = target: LNX1_2, Q8TBB1
LNX1_2, Q8TBB1, sequence (Q8TBB1 371-470): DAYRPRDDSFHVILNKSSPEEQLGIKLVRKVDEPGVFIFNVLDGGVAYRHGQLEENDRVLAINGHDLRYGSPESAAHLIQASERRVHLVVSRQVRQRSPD

[22] = target: T11, GRIP1_2, Q9Y3R0
[23] = target: GRIP2_5, Q9C0E4
GRIP2_5, Q9C0E4, sequence (Q9C0E4 544-642): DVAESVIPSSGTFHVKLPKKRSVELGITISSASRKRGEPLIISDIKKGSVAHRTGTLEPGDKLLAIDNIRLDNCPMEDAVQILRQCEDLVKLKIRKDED

[24] = target: GRIP2_4, Q9C0E4
GRIP2_4, Q9C0E4, sequence (Q9C0E4 446-548): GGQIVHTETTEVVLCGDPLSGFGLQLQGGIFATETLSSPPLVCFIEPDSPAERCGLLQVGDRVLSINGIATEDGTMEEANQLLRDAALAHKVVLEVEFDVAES

[25] = target: HTRA2, O43464
HTRA2, O43464, sequence (O43464 355-458): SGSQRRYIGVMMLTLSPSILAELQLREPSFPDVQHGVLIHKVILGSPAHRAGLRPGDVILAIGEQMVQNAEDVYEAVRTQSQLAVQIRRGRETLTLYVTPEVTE

[26] = target: FRMPD3, Q5JV73
FRMPD3, Q5JV73, sequence (Q5JV73 12-100): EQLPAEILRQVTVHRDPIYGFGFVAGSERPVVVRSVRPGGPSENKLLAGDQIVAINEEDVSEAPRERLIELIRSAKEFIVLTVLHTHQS

[27] = target: GRIP2_6, Q9C0E4
GRIP2_6, Q9C0E4, sequence (Q9C0E4 648-740): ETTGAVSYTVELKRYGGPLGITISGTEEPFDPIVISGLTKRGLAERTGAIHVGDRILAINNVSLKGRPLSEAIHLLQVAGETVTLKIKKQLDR

Row | Binder | pKd [1] | pKd [2] | pKd [3] | pKd [4] | pKd [5] | pKd [6] | pKd [7] | pKd [8] | pKd [9] | pKd [10] | pKd [11] | pKd [12] | pKd [13] | pKd [14] | pKd [15] | pKd [16] | pKd [17] | pKd [18] | pKd [19] | pKd [20] | further results
1 | DYSNLRETDI [ADRA1D, P25100] | below the threshold | below the threshold | 3.89 | below the threshold | below the threshold | below the threshold | below the threshold | 5.02 | below the threshold | 3.69 | below the threshold | below the threshold | below the threshold | 4.44 | 3.84 | 3.51 | below the threshold | 5.05 | below the threshold | below the threshold | pKd [21]: below the threshold; pKd [22]: below the threshold; pKd [23]: below the threshold; pKd [24]: below the threshold; pKd [25]: below the threshold; pKd [26]: below the threshold; pKd [27]: below the threshold
2 | SAGADSETHC [SLCO1B1, Q9Y6L6] | below the threshold | below the threshold | below the threshold | below the threshold | below the threshold | below the threshold | below the threshold | below the threshold | 3.72 | below the threshold | 3.68 | below the threshold | below the threshold | below the threshold | below the threshold | below the threshold | below the threshold | 3.61 | below the threshold | below the threshold | pKd [21]: below the threshold; pKd [22]: below the threshold; pKd [23]: below the threshold; pKd [24]: below the threshold; pKd [25]: below the threshold; pKd [26]: below the threshold; pKd [27]: below the threshold
3 | GVHSNDHSVV [LPAR1, Q92633] | below the threshold | 3.94 | below the threshold | below the threshold | below the threshold | 3.48 | below the threshold | below the threshold | below the threshold | below the threshold | below the threshold | below the threshold | below the threshold | below the threshold | below the threshold | below the threshold | below the threshold | below the threshold | below the threshold | below the threshold | pKd [21]: below the threshold; pKd [22]: below the threshold; pKd [23]: below the threshold; pKd [24]: below the threshold; pKd [25]: below the threshold; pKd [26]: below the threshold; pKd [27]: below the threshold
4 | WAKEKQHTRL [SLC17A1, Q14916] | below the threshold | below the threshold | 3.82 | below the threshold | below the threshold | below the threshold | below the threshold | 3.65 | 4.39 | 3.79 | 4.73 | 4.31 | below the threshold | 3.47 | below the threshold | below the threshold | below the threshold | 4.15 | below the threshold | below the threshold | pKd [21]: below the threshold; pKd [22]: below the threshold; pKd [23]: below the threshold; pKd [24]: below the threshold; pKd [25]: below the threshold; pKd [26]: below the threshold; pKd [27]: below the threshold
5 | YAEKRMLTEV [KCNA6, P17658] | below the threshold | 3.99 | 3.65 | below the threshold | below the threshold | below the threshold | below the threshold | below the threshold | below the threshold | below the threshold | below the threshold | below the threshold | below the threshold | below the threshold | below the threshold | below the threshold | below the threshold | below the threshold | below the threshold | below the threshold | pKd [21]: 3.51; pKd [22]: below the threshold; pKd [23]: below the threshold; pKd [24]: below the threshold; pKd [25]: below the threshold; pKd [26]: below the threshold; pKd [27]: below the threshold
